Columns and labels:
HeLa Kyoto [1] = test: solubility in G1/S (NP-40 vs SDS abundance) (log2 ratio); higher = more soluble; details: cell cycle stage: G1/S
HeLa Kyoto [2] = test: melting temperature (median over replicates), in situ; higher = more thermally stable
HeLa Kyoto [3] = test: solubility change mitosis vs G1/S (difference of NP-40 vs SDS log2 ratios) (log2 ratio difference); higher = more soluble in mitosis
HeLa Kyoto [4] = test: thermal stability score vs G1/S (z-score of summed log2 fold changes over temperatures); higher = more thermally stable than in G1/S
[5] = cell cycle stage: early G1 (4.5 h after nocodazole release)
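For melting temperature (median over replicates), in situ in this document: HeLa Kyoto cells synchronized by double thymidine or nocodazole block, proteins quantified by TMT10plex mass spectrometry, three independent biological replicates.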
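For solubility change mitosis vs G1/S (difference of NP-40 vs SDS log2 ratios) in this document: synchronized HeLa Kyoto cells (double thymidine block for G1/S, nocodazole release for mitosis), protein amounts in NP-40 versus SDS lysates quantified by mass spectrometry, three biological replicates.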
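For solubility in G1/S (NP-40 vs SDS abundance) in this document: HeLa Kyoto cells arrested at G1/S by double thymidine block, proteins quantified by TMT10plex mass spectrometry in mild NP-40 versus SDS extracts, three biological replicates.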
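For thermal stability score vs G1/S (z-score of summed log2 fold changes over temperatures) in this document: synchronized HeLa Kyoto cells, proteins quantified by TMT10plex mass spectrometry, three biological replicates, mitosis taken 0.5 h after nocodazole release, G1/S directly after double thymidine block.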

Sequence | solubility in G1/S (log2) (HeLa Kyoto [1]) | melting temperature (HeLa Kyoto [2]; cell cycle stage: mitosis) [°C] | solubility change mitosis (log2) (HeLa Kyoto [3]) | thermal stability score (HeLa Kyoto [4]; [5]) | thermal stability score (HeLa Kyoto [4]; cell cycle stage: mitosis) | melting temperature (HeLa Kyoto [2]; cell cycle stage: G1/S) [°C]
MALLCLDGVFLSSAENDFVHRIQEELDRFLLQKQLSKVLLFPPLSSRLRYLIHRTAENFDLLSSFSVGEGWKRRTVICHQDIRVPSSDGLSGPCRAPASCPSRYHGPRPISNQGAAAVPRGARAGRWYRGRKPDQPLYVPRVLRRQEEWGLTSTSVLKREAPAGRDPEEPGDVGAGDPNSDQGLPVLMTQGTEDLKGPGQRCENEPLLDPVGPEPLGPESQSGKGDMVEMATRFGSTLQLDLEKGKESLLEKRLVAEEEEDEEEVEEDGPSSCSEDDYSELLQEITDNLTKKEIQIEKIHLDTSSFVEELPGEKDLAHVVEIYDFEPALKTEDLLATFSEFQEKGFRIQWVDDTHALGIFPCLASAAEALTREFSVLKIRPLTQGTKQSKLKALQRPKLLRLVKERPQTNATVARRLVARALGLQHKKKERPAVRGPLPP [R3HCC1] | -0.047 | 51.1 | -0.0167 | -0.563 | -0.284 | 
MALLCYNRGCGQRFDPETNSDDACTYHPGVPVFHDALKGWSCCKRRTTDFSDFLSIVGCTKGRHNSEKPPEPVKPEVKTTEKKELCELKPKFQEHIIQAPKPVEAIKRPSPDEPMTNLELKISASLKQALDKLKLSSGNEENKKEEDNDEIKIGTSCKNGGCSKTYQGLESLEEVCVYHSGVPIFHEGMKYWSCCRRKTSDFNTFLAQEGCTKGKHMWTKKDAGKKVVPCRHDWHQTGGEVTISVYAKNSLPELSRVEANSTLLNVHIVFEGEKEFDQNVKLWGVIDVKRSYVTMTATKIEITMRKAEPMQWASLELPAAKKQEKQKDATTD [CHORDC1] | 0.0558 | 52.4 | -0.122 | -0.00128 | 0.22 | 52
MALLHSGRVLPGIAAAFHPGLAAAASARASSWWTHVEMGPPDPILGVTEAFKRDTNSKKMNLGVGAYRDDNGKPYVLPSVRKAEAQIAAKNLDKEYLPIGGLAEFCKASAELALGENSEVLKSGRFVTVQTISGTGALRIGASFLQRFFKFSRDVFLPKPTWGNHTPIFRDAGMQLQGYRYYDPKTCGFDFTGAVEDISKIPEQSVLLLHACAHNPTGVDPRPEQWKEIATVVKKRNLFAFFDMAYQGFASGDGDKDAWAVRHFIEQGINVCLCQSYAKNMGLYGERVGAFTMVCKDADEAKRVESQLKILIRPMYSNPPLNGARIAAAILNTPDLRKQWLQEVKVMADRIIGMRTQLVSNLKKEGSTHNWQHITDQIGMFCFTGLKPEQVERLIKEFSIYMTKDGRISVAGVTSSNVGYLAHAIHQVTK [GOT2] | 0.165 | 58.8 | -0.0966 | -1.18 | -2.25 | 59.4
MALLPRALSAGAGPSWRRAARAFRGFLLLLPEPAALTRALSRAMACRQEPQPQGPPPAAGAVASYDYLVIGGGSGGLASARRAAELGARAAVVESHKLGGTCVNVGCVPKKVMWNTAVHSEFMHDHADYGFPSCEGKFNWRVIKEKRDAYVSRLNAIYQNNLTKSHIEIIRGHAAFTSDPKPTIEVSGKKYTAPHILIATGGMPSTPHESQIPGASLGITSDGFFQLEELPGRSVIVGAGYIAVEMAGILSALGSKTSLMIRHDKVLRSFDSMISTNCTEELENAGVEVLKFSQVKEVKKTLSGLEVSMVTAVPGRLPVMTMIPDVDCLLWAIGRVPNTKDLSLNKLGIQTDDKGHIIVDEFQNTNVKGIYAVGDVCGKALLTPVAIAAGRKLAHRLFEYKEDSKLDYNNIPTVVFSHPPIGTVGLTEDEAIHKYGIENVKTYSTSFTPMYHAVTKRKTKCVMKMVCANKEEKVVGIHMQGLGCDEMLQGFAVAVKMGATKADFDNTVAIHPTSSEELVTLR [GSR] | 0.127 | 59.7 | -0.09 | -1.7 | -2.29 | 58.8
MALLSEGLDEVPAACLSPCGPPNPTELFSESRRLALEELVAGGPEAFAAFLRRERLARFLNPDEVHAILRAAERPGEEGAAAAAAAEDSFGSSHDCSSGTYFPEQSDLEPPLLELGWPAFYQGAYRGATRVETHFQPRGAGEGGPYGCKDALRQQLRSAREVIAVVMDVFTDIDIFRDLQEICRKQGVAVYILLDQALLSQFLDMCMDLKVHPEQEKLMTVRTITGNIYYARSGTKIIGKVHEKFTLIDGIRVATGSYSFTWTDGKLNSSNLVILSGQVVEHFDLEFRILYAQSKPISPKLLSHFQSSNKFDHLTNRKPQSKELTLGNLLRMRLARLSSTPRKADLDPEMPAEGKAERKPHDCESSTVSEEDYFSSHRDELQSRKAIDAATQTEPGEEMPGLSVSEVGTQTSITTACAGTQTAVITRIASSQTTIWSRSTTTQTDMDENILFPRGTQSTEGSPVSKMSVSRSSSLKSSSSVSSQGSVASSTGSPASIRTTDFHNPGYPKYLGTPHLELYLSDSLRNLNKERQFHFAGIRSRLNHMLAMLSRRTLFTENHLGLHSGNFSRVNLLAVRDVALYPSYQ [FAM83D] | -0.213 | 49.4 | -0.133 | 0.13 | -0.391 | 49.8
MALLVLGLVSCTFFLAVNGLYSSSDDVIELTPSNFNREVIQSDSLWLVEFYAPWCGHCQRLTPEWKKAATALKDVVKVGAVDADKHHSLGGQYGVQGFPTIKIFGSNKNRPEDYQGGRTGEAIVDAALSALRQLVKDRLGGRSGGYSSGKQGRSDSSSKKDVIELTDDSFDKNVLDSEDVWMVEFYAPWCGHCKNLEPEWAAAASEVKEQTKGKVKLAAVDATVNQVLASRYGIRGFPTIKIFQKGESPVDYDGGRTRSDIVSRALDLFSDNAPPPELLEIINEDIAKRTCEEHQLCVVAVLPHILDTGAAGRNSYLEVLLKLADKYKKKMWGWLWTEAGAQSELETALGIGGFGYPAMAAINARKMKFALLKGSFSEQGINEFLRELSFGRGSTAPVGGGAFPTIVEREPWDGRDGELPVEDDIDLSDVELDDLGKDEL [PDIA6] | 0.44 | 56.2 | -0.1 | 4.84 | 4.76 | 55.1
MALNKNHSEGGGVIVNNTESILMSYDHVELTFNDMKNVPEAFKGTKKGTVYLTPYRVIFLSKGKDAMQSFMMPFYLMKDCEIKQPVFGANYIKGTVKAEAGGGWEGSASYKLTFTAGGAIEFGQRMLQVASQASRGEVPSGAYGYSYMPSGAYVYPPPVANGMYPCPPGYPYPPPPPEFYPGPPMMDGAMGYVQPPPPPYPGPMEPPVSGPDVPSTPAAEAKAAEAAASAYYNPGNPHNVYMPTSQPPPPPYYPPEDKKTQ [WBP2] | 0.283 | 54.5 | -0.0665 | 0.182 | -1.41 | 54.1
MALPIIVKWGGQEYSVTTLSEDDTVLDLKQFLKTLTGVLPERQKLLGLKVKGKPAENDVKLGALKLKPNTKIMMMGTREESLEDVLGPPPDNDDVVNDFDIEDEVVEVENREENLLKISRRVKEYKVEILNPPREGKKLLVLDVDYTLFDHRSCAETGVELMRPYLHEFLTSAYEDYDIVIWSATNMKWIEAKMKELGVSTNANYKITFMLDSAAMITVHTPRRGLIDVKPLGVIWGKFSEFYSKKNTIMFDDIGRNFLMNPQNGLKIRPFMKAHLNRDKDKELLKLTQYLKEIAKLDDFLDLNHKYWERYLSKKQGQ [UBLCP1] | 0.159 | 50 | -0.142 | 0.941 | 2.39 | 49.5
MALQGISVVELSGLAPGPFCAMVLADFGARVVRVDRPGSRYDVSRLGRGKRSLVLDLKQPRGAAVLRRLCKRSDVLLEPFRRGVMEKLQLGPEILQRENPRLIYARLSGFGQSGSFCRLAGHDINYLALSGVLSKIGRSGENPYAPLNLLADFAGGGLMCALGIIMALFDRTRTGKGQVIDANMVEGTAYLSSFLWKTQKLSLWEAPRGQNMLDGGAPFYTTYRTADGEFMAVGAIEPQFYELLIKGLGLKSDELPNQMSMDDWPEMKKKFADVFAEKTKAEWCQIFDGTDACVTPVLTFEEVVHHDHNKERGSFITSEEQDVSPRPAPLLLNTPAIPSFKRDPFIGEHTEEILEEFGFSREEIYQLNSDKIIESNKVKASL [AMACR] | 0.155 | 52.5 | -0.0545 | 0.0452 | 0.6 | 52.1
MALRPGAGSGGGGAAGAGAGSAGGGGFMFPVAGGIRPPQAGLMPMQQQGFPMVSVMQPNMQGIMGMNYSSQMSQGPIAMQAGIPMGPMPAAGMPYLGQAPFLGMRPPGPQYTPDMQKQFAEEQQKRFEQQQKLLEEERKRRQFEEQKQKLRLLSSVKPKTGEKSRDDALEAIKGNLDGFSRDAKMHPTPASHPKKPGPSLEEKFLVSCDISTSGQEQIKLNTSEVGHKALGPGSSKKYPSLMASNGVAVDGCVSGTTTAEAENTSDQNLSIEESGVGVFPSQDPAQPRMPPWIYNESLVPDAYKKILETTMTPTGIDTAKLYPILMSSGLPRETLGQIWALANRTTPGKLTKEELYTVLAMIAVTQRGVPAMSPDALNQFPAAPIPTLSGFSMTLPTPVSQPTVIPSGPAGSMPLSLGQPVMGINLVGPVGGAAAQASSGFIPTYPANQVVKPEEDDFQDFQDASKSGSLDDSFSDFQELPASSKTSNSQHGNSAPSLLMPLPGTKALPSMDKYAVFKGIAADKSSENTVPPGDPGDKYSAFRELEQTAENKPLGESFAEFRSAGTDDGFTDFKTADSVSPLEPPTKDKTFPPSFPSGTIQQKQQTQVKNPLNLADLDMFSSVNCSSEKPLSFSAVFSTSKSVSTPQSTGSAATMTALAATKTSSLADDFGEFSLFGEYSGLAPVGEQDDFADFMAFSNSSISSEQKPDDKYDALKEEASPVPLTSNVGSTVKGGQNSTAASTKYDVFRQLSLEGSGLGVEDLKDNTPSGKSDDDFADFHSSKFSSINSDKSLGEKAVAFRHTKEDSASVKSLDLPSIGGSSVGKEDSEDALSVQFDMKLADVGGDLKHVMSDSSLDLPTVSGQHPPAADIEDLKYAAFGSYSSNFAVSTLTSYDWSDRDDATQGRKLSPFVLSAGSGSPSATSILQKKETSFGSSENITMTSLSKVTTFVSEDALPETTFPALASFKDTIPQTSEQKEYENRDYKDFTKQDLPTAERSQEATCPSPASSGASQETPNECSDDFGEFQSEKPKISKFDFLVATSQSKMKSSEEMIKSELATFDLSVQGSHKRSLSLGDKEISRSSPSPALEQPFRDRSNTLNEKPALPVIRDKYKDLTGEVEENERYAYEWQRCLGSALNVIKKANDTLNGISSSSVCTEVIQSAQGMEYLLGVVEVYRVTKRVELGIKATAVCSEKLQQLLKDIDKVWNNLIGFMSLATLTPDENSLDFSSCMLRPGIKNAQELACGVCLLNVDSRSRKEEKPAEEHPKKAFNSETDSFKLAYGGHQYHASCANFWINCVEPKPPGLVLPDLL [SYNRG] | 0.0486 | 49.7 | -0.164 | 0.188 | 1.39 | 49.9

From the supplement of paper PMC5998384
